From the supplement of paper PMC5998384 come the findings set out here.

For data set [1], the system named is HeLa Kyoto. Briefly: solubility change mitosis vs G1/S (difference of NP-40 vs SDS log2 ratios) (log2 ratio difference); higher = more soluble in mitosis.
Data set [2] concerns HeLa Kyoto. Nature of the data set: solubility in G1/S (NP-40 vs SDS abundance) (log2 ratio); higher = more soluble. To be noted: cell cycle stage: G1/S.
For data set [3], the system named is HeLa Kyoto. Nature of the data set: thermal stability score vs G1/S (z-score of summed log2 fold changes over temperatures); higher = more thermally stable than in G1/S.
Data set [4] deals with HeLa Kyoto. Briefly: melting temperature (median over replicates), in situ; higher = more thermally stable.
[5] abbreviates: cell cycle stage: early G1 (4.5 h after nocodazole release).
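Throughout, for melting temperature (median over replicates), in situ: HeLa Kyoto cells synchronized by double thymidine or nocodazole block, proteins quantified by TMT10plex mass spectrometry, three independent biological replicates.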
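Throughout, for solubility change mitosis vs G1/S (difference of NP-40 vs SDS log2 ratios): synchronized HeLa Kyoto cells (double thymidine block for G1/S, nocodazole release for mitosis), protein amounts in NP-40 versus SDS lysates quantified by mass spectrometry, three biological replicates.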
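Throughout, for solubility in G1/S (NP-40 vs SDS abundance): HeLa Kyoto cells arrested at G1/S by double thymidine block, proteins quantified by TMT10plex mass spectrometry in mild NP-40 versus SDS extracts, three biological replicates.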
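Throughout, for thermal stability score vs G1/S (z-score of summed log2 fold changes over temperatures): synchronized HeLa Kyoto cells, proteins quantified by TMT10plex mass spectrometry, three biological replicates, mitosis taken 0.5 h after nocodazole release, G1/S directly after double thymidine block.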

With “MNTADQARVGPADDGPAPSGEEEGEGGGEAGGKEPAADAAPGPSAAFRLMVTRREPAVKLQYAVSGLEPLAWSEDHRVSVSTARSIAVLELICDVHNPGQDLVIHRTSVPAPLNSCLLKVGSKTEVAECKEKFAASKDPTVSQTFMLDRVFNPEGKALPPMRGFKYTSWSPMGCDANGRCLLAALTMDNRLTIQANLNRLQWVQLVDLTEIYGERLYETSYRLSKNEAPEGNLGDFAEFQRRHSMQTPVRMEWSGICTTQQVKHNNECRDVGSVLLAVLFENGNIAVWQFQLPFVGKESISSCNTIESGITSPSVLFWWEYEHNNRKMSGLIVGSAFGPIKILPVNLKAVKGYFTLRQPVILWKEMDQLPVHSIKCVPLYHPYQKCSCSLVVAARGSYVFWCLLLISKAGLNVHNSHVTGLHSLPIVSMTADKQNGTVYTCSSDGKVRQLIPIFTDVALKFEHQLIKLSDVFGSVRTHGIAVSPCGAYLAIITTEGMINGLHPVNKNYQVQFVTLKTFEEAAAQLLESSVQNLFKQVDLIDLVRWKILKDKHIPQFLQEALEKKIESSGVTYFWRFKLFLLRILYQSMQKTPSEALWKPTHEDSKILLVDSPGMGNADDEQQEEGTSSKQVVKQGLQERSKEGDVEEPTDDSLPTTGDAGGREPMEEKLLEIQGKIEAVEMHLTREHMKRVLGEVYLHTWITENTSIPTRGLCNFLMSDEEYDDRTARVLIGHISKKMNKQTFPEHCSLCKEILPFTDRKQAVCSNGHIWLRCFLTYQSCQSLIYRRCLLHDSIARHPAPEDPDWIKRLLQSPCPFCDSPVF [GTF3C4]”, the “solubility change mitosis (log2)” value in the data set on HeLa Kyoto [1] is -0.0904. Also, the “solubility in G1/S (log2)” value in the data set on HeLa Kyoto [2] was -0.0178. In addition, the results for the thermal stability score in the data set with HeLa Kyoto [3] (setting [5]) and in the data set on HeLa Kyoto [3] (cell cycle stage: mitosis) were 1.42 and 3.08, respectively. In addition, the melting temperature in the data set on HeLa Kyoto [4] (cell cycle stage: G1/S) was 49.4 °C; in the data set on HeLa Kyoto [4] (cell cycle stage: mitosis), 49.9 °C.

As to “MPAESGKRFKPSKYVPVSAAAIFLVGATTLFFAFTCPGLSLYVSPAVPIYNAIMFLFVLANFSMATFMDPGIFPRAEEDEDKEDDFRAPLYKTVEIKGIQVRMKWCATCRFYRPPRCSHCSVCDNCVEEFDHHCPWVNNCIGRRNYRYFFLFLLSLTAHIMGVFGFGLLYVLYHIEELSGVRTAVTMAVMCVAGLFFIPVAGLTGFHVVLVARGRTTNEQVTGKFRGGVNPFTNGCCNNVSRVLCSSPAPRYLGRPKKEKTIVIRPPFLRPEVSDGQITVKIMDNGIQGELRRTKSKGSLEITESQSADAEPPPPPKPDLSRYTGLRTHLGLATNEDSSLLAKDSPPTPTMYKYRPGYSSSSTSAAMPHSSSAKLSRGDSLKEPTSIAESSRHPSYRSEPSLEPESFRSPTFGKSFHFDPLSSGSRSSSLKSAQGTGFELGQLQSIRSEGTTSTSYKSLANQTRNGSLSYDSLLTPSDSPDFESVQAGPEPDPPLGYTSPFLSARLAQQREAERHPRLVPTGPTHREPSPVRYDNLSRHIVASLQEREKLLRQSPPLPGREEEPGLGDSGIQSTPGSGHAPRTSSSSDDSKRSPLGKTPLGRPAVPRFGKPDGLRGRGVGSPEPGPTAPYLGRSMSYSSQKAQPGVSETEEVALQPLLTPKDEVQLKTTYSKSNGQPKSLGSASPGPGQPPLSSPTRGGVKKVSGVGGTTYEISV [ZDHHC5]”, the “solubility change mitosis (log2)” value in the data set with HeLa Kyoto [1] came to 0.124. In the data set on HeLa Kyoto [2], the “solubility in G1/S (log2)” value was -0.172. In addition, the thermal stability score in the data set on HeLa Kyoto [3] (setting [5]) was -2.84; with HeLa Kyoto [3] (cell cycle stage: mitosis) it was 1.5. In addition, the melting temperature with HeLa Kyoto [4] (cell cycle stage: G1/S) amounted to 59.1 °C; in the data set on HeLa Kyoto [4] (cell cycle stage: mitosis) it was 62.7 °C.

Turning to “MPAGPVQAVPPPPPVPTEPKQPTEEEASSKEDSAPSKPVVGIIYPPPEVRNIVDKTASFVARNGPEFEARIRQNEINNPKFNFLNPNDPYHAYYRHKVSEFKEGKAQEPSAAIPKVMQQQQQTTQQQLPQKVQAQVIQETIVPKEPPPEFEFIADPPSISAFDLDVVKLTAQFVARNGRQFLTQLMQKEQRNYQFDFLRPQHSLFNYFTKLVEQYTKILIPPKGLFSKLKKEAENPREVLDQVCYRVEWAKFQERERKKEEEEKEKERVAYAQIDWHDFVVVETVDFQPNEQGNFPPPTTPEELGARILIQERYEKFGESEEVEMEVESDEEDDKQEKAEEPPSQLDQDTQVQDMDEGSDDEEEGQKVPPPPETPMPPPLPPTPDQVIVRKDYDPKASKPLPPAPAPDEYLVSPITGEKIPASKMQEHMRIGLLDPRWLEQRDRSIREKQSDDEVYAPGLDIESSLKQLAERRTDIFGVEETAIGKKIGEEEIQKPEEKVTWDGHSGSMARTQQAAQANITLQEQIEAIHKAKGLVPEDDTKEKIGPSKPNEIPQQPPPPSSATNIPSSAPPITSVPRPPTMPPPVRTTVVSAVPVMPRPPMASVVRLPPGSVIAPMPPIIHAPRINVVPMPPSAPPIMAPRPPPMIVPTAFVPAPPVAPVPAPAPMPPVHPPPPMEDEPTSKKLKTEDSLMPEEEFLRRNKGPVSIKVQVPNMQDKTEWKLNGQVLVFTLPLTDQVSVIKVKIHEATGMPAGKQKLQYEGIFIKDSNSLAYYNMANGAVIHLALKERGGRKK [SF3A1]”, the “solubility change mitosis (log2)” value with HeLa Kyoto [1] amounted to 0.18. The “solubility in G1/S (log2)” value in the data set on HeLa Kyoto [2] was -0.0723. The values for the thermal stability score in the data set with HeLa Kyoto [3] (setting [5]) and in the data set on HeLa Kyoto [3] (cell cycle stage: mitosis) were -0.95 and 1.92, respectively. Also, the melting temperature was determined as 49.8 °C in the data set on HeLa Kyoto [4] (cell cycle stage: G1/S) and 50.2 °C in the data set with HeLa Kyoto [4] (cell cycle stage: mitosis).

Turning to “MPALPLDQLQITHKDPKTGKLRTSPALHPEQKADRYFVLYKPPPKDNIPALVEEYLERATFVANDLDWLLALPHDKFWCQVIFDETLQKCLDSYLRYVPRKFDEGVASAPEVVDMQKRLHRSVFLTFLRMSTHKESKDHFISPSAFGEILYNNFLFDIPKILDLCVLFGKGNSPLLQKMIGNIFTQQPSYYSDLDETLPTILQVFSNILQHCGLQGDGANTTPQKLEERGRLTPSDMPLLELKDIVLYLCDTCTTLWAFLDIFPLACQTFQKHDFCYRLASFYEAAIPEMESAIKKRRLEDSKLLGDLWQRLSHSRKKLMEIFHIILNQICLLPILESSCDNIQGFIEEFLQIFSSLLQEKRFLRDYDALFPVAEDISLLQQASSVLDETRTAYILQAVESAWEGVDRRKATDAKDPSVIEEPNGEPNGVTVTAEAVSQASSHPENSEEEECMGAAAAVGPAMCGVELDSLISQVKDLLPDLGEGFILACLEYYHYDPEQVINNILEERLAPTLSQLDRNLDREMKPDPTPLLTSRHNVFQNDEFDVFSRDSVDLSRVHKGKSTRKEENTRSLLNDKRAVAAQRQRYEQYSVVVEEVPLQPGESLPYHSVYYEDEYDDTYDGNQVGANDADSDDELISRRPFTIPQVLRTKVPREGQEEDDDDEEDDADEEAPKPDHFVQDPAVLREKAEARRMAFLAKKGYRHDSSTAVAGSPRGHGQSRETTQERRKKEANKATRANHNRRTMADRKRSKGMIPS [ASCC2]”, the “solubility change mitosis (log2)” value in the data set on HeLa Kyoto [1] turned out to be 0.0692. Also, in the data set on HeLa Kyoto [2], the “solubility in G1/S (log2)” value was -0.248. Moreover, the thermal stability score in the data set on HeLa Kyoto [3] (setting [5]) came out at 0.236; in the data set on HeLa Kyoto [3] (cell cycle stage: mitosis) it was 1.02. In addition, the melting temperature worked out at 52.1 °C in the data set with HeLa Kyoto [4] (cell cycle stage: G1/S) and 49.5 °C with HeLa Kyoto [4] (cell cycle stage: mitosis).

Regarding “MPALSTGSGSDTGLYELLAALPAQLQPHVDSQEDLTFLWDMFGEKSLHSLVKIHEKLHYYEKQSPVPILHGAAALADDLAEELQNKPLNSEIRELLKLLSKPNVKALLSVHDTVAQKNYDPVLPPMPEDIDDEEDSVKIIRLVKNREPLGATIKKDEQTGAIIVARIMRGGAADRSGLIHVGDELREVNGIPVEDKRPEEIIQILAQSQGAITFKIIPGSKEETPSKEGKMFIKALFDYNPNEDKAIPCKEAGLSFKKGDILQIMSQDDATWWQAKHEADANPRAGLIPSKHFQERRLALRRPEILVQPLKVSNRKSSGFRKSFRLSRKDKKTNKSMYECKKSDQYDTADVPTYEEVTPYRRQTNEKYRLVVLVGPVGVGLNELKRKLLISDTQHYGVTVPHTTRARRSQESDGVEYIFISKHLFETDVQNNKFIEYGEYKNNYYGTSIDSVRSVLAKNKVCLLDVQPHTVKHLRTLEFKPYVIFIKPPSIERLRETRKNAKIISSRDDQGAAKPFTEEDFQEMIKSAQIMESQYGHLFDKIIINDDLTVAFNELKTTFDKLETETHWVPVSWLHS [MPP7]”, the “solubility change mitosis (log2)” value in the data set on HeLa Kyoto [1] came out at 0.00867. The “solubility in G1/S (log2)” value with HeLa Kyoto [2] was -0.0584. Moreover, the thermal stability score worked out at 0.55 in the data set on HeLa Kyoto [3] (setting [5]) and 1.76 in the data set on HeLa Kyoto [3] (cell cycle stage: mitosis). In addition, the melting temperature was determined as 47.8 °C in the data set with HeLa Kyoto [4] (cell cycle stage: G1/S) and 48.5 °C in the data set on HeLa Kyoto [4] (cell cycle stage: mitosis).

Consider “MPAPTQLFFPLIRNCELSRIYGTACYCHHKHLCCSSSYIPQSRLRYTPHPAYATFCRPKENWWQYTQGRRYASTPQKFYLTPPQVNSILKANEYSFKVPEFDGKNVSSILGFDSNQLPANAPIEDRRSAATCLQTRGMLLGVFDGHAGCACSQAVSERLFYYIAVSLLPHETLLEIENAVESGRALLPILQWHKHPNDYFSKEASKLYFNSLRTYWQELIDLNTGESTDIDVKEALINAFKRLDNDISLEAQVGDPNSFLNYLVLRVAFSGATACVAHVDGVDLHVANTGDSRAMLGVQEEDGSWSAVTLSNDHNAQNERELERLKLEHPKSEAKSVVKQDRLLGLLMPFRAFGDVKFKWSIDLQKRVIESGPDQLNDNEYTKFIPPNYHTPPYLTAEPEVTYHRLRPQDKFLVLATDGLWETMHRQDVVRIVGEYLTGMHHQQPIAVGGYKVTLGQMHGLLTERRTKMSSVFEDQNAATHLIRHAVGNNEFGTVDHERLSKMLSLPEELARMYRDDITIIVVQFNSHVVGAYQNQE [PDP1]”, for which, in the data set with HeLa Kyoto [1], the “solubility change mitosis (log2)” value was -0.0758. In addition, in the data set with HeLa Kyoto [2], the “solubility in G1/S (log2)” value was 0.103. Further, the thermal stability score in the data set on HeLa Kyoto [3] (setting [5]) turned out to be 0.767; in the data set on HeLa Kyoto [3] (cell cycle stage: mitosis) it was 1.07. In addition, the melting temperature in the data set on HeLa Kyoto [4] (cell cycle stage: G1/S) came out at 52.7 °C; with HeLa Kyoto [4] (cell cycle stage: mitosis), 51.6 °C.
